Source: patent US6713276B2, “Modulation of Aβ levels by β-secretase BACE2” (Scios, Inc., priority 2000, dated 2004)

Columns and labels:
APP751sw = experiment: cell-free β-secretase assay, β-NTF ELISA, APP751sw substrate; format: biochemical, human; details: membrane extracts of transfected HEK293 cells, pH 4.5, 37° C.
Procedure: (§1) The β-secretase assay consists of two different parts, an incubation or reaction phase to generate β-NTF and an ELISA part to capture and measure the β-NTF generated by β-secretase. The β-secretase ELISA was performed as follows. Each well of a 96 well plate containing a flat bottom (high protein binding, Corning, N.Y.) was coated with 100 μl of the monoclonal capture antibody 8E5 (at ˜8-10 μg/ml) (Johnson-Wood et al. Proc. Natl. Acad. Sci. USA 94: 1550-1555 [1997]). The plate was then covered with parafilm and incubated overnight at 4° C. or alternatively for 2 hours at 37° C. […]
(§2) One hundred μl of a 1:5000 dilution of a goat anti rabbit IgG-HRP in Antibody-Conjugate Buffer was then added to each well, and the plate incubated at room temperature for one hour. […] After sufficient blue color had developed, the reactions were stopped by adding 100 μl of 5N H2SO4 to each well, and the amount of βNTF was determined by reading the plate at 450 nm in a Softmax spectrophotometer.
(§3) Equal amounts of membrane extracts from either mock, BACE or BACE2 transfected HEK293 cells were incubated with partially purified full length APP751 sw or APP751wt for the indicated times. The formation of β-NTF was then determined using the respective β-NTF specific ELISA as described in General Methodology.

[1] = test system: APP751sw processing in SK-N-MC cells; experiment: co-transfection with APP751sw in SK-N-MC neuroblastoma cells, ELISA of conditioned medium; format: cell-based, human; details: co-transfected with APP751sw
Procedure: Expression vectors containing BACE and BACE2 cDNAs were transfected into HEK293T cells in the presence of APP751sw or CT100 (Shoji et al., Science 258: 126-129 [1992]; Lichtenthaler et al., Proc. Natl. Acad. Sci. USA 96: 3053-3058 [1999]). Transfections were performed in 24 well plates using Lipofectamine Plus (Gibco/BRL, Bethesda, Md.) and DNA concentrations were kept constant by including non-specific DNA. Expression plasmids were tested for BACE and BACE2 expression by Western blotting. Cell culture supernatants were collected 48 hours and 72 hours post-transfection, and assayed for α-NTF, β-NTF and Aβ formation. β-NTF measurement was performed as described below. α-NTF was captured like β-NTF but was detected with biotinylated 2H3 (Johnson-Wood et al., Proc. Nati. Acad. Sci. USA 94: 1550-1555 [1997]). Aβ levels were determined by an ELISA using monoclonal antibodies 266 for capture and biotinylated 3D6 for detection (see Johnson-Wood et al., [1997] ibid for antibody epitope description). Aβ42, in contrast, was captured using 21F 12 and detected with biotinylated 3D6. […]
We further assessed the modulatory effect of BACE2 on Aβ formation using a human neuroblastoma cell line, SK-N-MC.

APP751wt = experiment: cell-free β-secretase assay, β-NTF ELISA, APP751wt substrate; format: biochemical, human; details: membrane extracts of transfected HEK293 cells, incubation up to 8 hours
Procedure: as §1, §2, §3

Molecule | β-NTF formation (β-secretase cleavage in vitro) (APP751sw) | Aβ in conditioned medium [1] | β-NTF in conditioned medium [1] | β-NTF formation (β-secretase cleavage in vitro) (APP751wt)
BACE2: human aspartyl protease, close homolog of BACE (SEQ ID NO: 2), expressed from pcDNA3.1(−)/BACE2 in transfected cells (protein) MGALARALLLPLLAQWLLRAAPELAPAPFTLPLRVAAATNRVVAPTPGPGTPAERHADGLALALEPALASPAGAANFLAMVDNLQGDSGRGYYLEMLIGTPPQKLQILVDTGSSNFAVAGTPHSYIDTYFDTERSSTYRSKGFDVTVKYTQGSWTGFVGEDLVTIPKGFNTSFLVNIATIFESENFFLPGIKWNGILGLAYATLAKPSSSLETFFDSLVTQANIPNVFSMQMCGAGLPVAGSGTNGGSLVLGGIEPSLYKGDIWYTPIKEEWYYQIEILKLEIGGQSLNLDCREYNADKAIVDSGTTLLRLPQKVFDAVVEAVARASLIPEFSDGFWTGSQLACWTNSETPWSYFPKISIYLRDENSSRSFRITILPQLYIQPMMGAGLNYECYRFGISPSTNALVIGATVMEGFYVIFDRAQKRVGFAASPCAEIAGAAVSEISGPFSTEDVASNCVPAQSLSEPILWIVSYALMSVCGAILLVLIVLLLLPFRCQRRPRDPEVVNDESSLVRHRWK | time-dependent increase in β-NTF formation | significant reduction of Aβ | showed β-secretase activity in vivo | cleaved APP751wt to a similar extent as BACE
BACE2 D110A: single D110A BACE2 mutant of a critical aspartate residue, made by site-directed mutagenesis (protein) ALEPALASPAGAANFLAMVDNLQGDSGRGYYLEMLIGTPPQKLQILVATGSSNFAVAGTPHSYIDTYFDTERSSTYRSKGFDVTVKYTQGSWTGFVGEDLVTIPKGFNTSFLVNIATIFESENFFLPGIKWNGILGLAYATLAKPSSSLETFFDSLVTQANIPNVFSMQMCGAGLPVAGSGTNGGSLVLGGIEPSLYKGDIWYTPIKEEWYYQIEILKLEIGGQSLNLDCREYNADKAIVDSGTTLLRLPQKVFDAVVEAVARASLIPEFSDGFWTGSQLACWTNSETPWSYFPKISIYLRDENSSRSFRITILPQLYIQPMMGAGLNYECYRFGISPSTNALVIGATVMEGFYVIFDRAQKRVGFAASPCAEIAGAAVSEISGPFSTEDVASNCVPAQSLSEPILWIVSYALMSVCGAILLVLIVLLLLPFRCQRRPRDPEVVNDESSLVRHRWK | lost their ability to cleave at the β-secretase site in vitro | – | – | –
